Test results from the Immune Epitope Database (IEDB).

Experiments:
HLA-A*01:01 [1] = test: IEDB peptide-MHC binding, purified MHC/direct/fluorescence; filed as Kd, often an IC50 or EC50 that approximates it; ≥ and ≤ were set here for values at or beyond the usual limits of such assays; settings: source organism: SARS-CoV1
HLA-A*03:01 [2] = test: as above; settings: source organism: SARS-CoV1
HLA-A*11:01 [3] = test: as above; settings: source organism: SARS-CoV1
HLA-B*15:01 = test: as above; settings: source organism: SARS-CoV1
HLA-B*58:01 = test: as above
HLA-A*23:01 = test: IEDB peptide-MHC binding, purified MHC/competitive/radioactivity; filed as Kd, often an IC50 or EC50 that approximates it; ≥ and ≤ were set here for values at or beyond the usual limits of such assays
HLA-A*24:02 = test: as above
HLA-A*26:01 = test: as above
HLA-A*29:02 = test: as above
HLA-A*30:02 = test: as above
HLA-A*01:01 [4] = test: as above
HLA-A*32:01 = test: as above
HLA-B*57:01 = test: IEDB peptide-MHC binding, purified MHC/direct/fluorescence; filed as Kd, often an IC50 or EC50 that approximates it; ≥ and ≤ were set here for values at or beyond the usual limits of such assays; settings: source organism: Yersinia pestis Antiqua
HLA-B*44:02 = test: IEDB peptide-MHC binding, purified MHC/competitive/radioactivity; filed as Kd, often an IC50 or EC50 that approximates it; ≥ and ≤ were set here for values at or beyond the usual limits of such assays
HLA-B*44:03 = test: as above
HLA-A*03:01 [5] = test: as above; settings: source organism: SARS coronavirus Tor2
HLA-A*11:01 [6] = test: as above; settings: source organism: SARS coronavirus Tor2
HLA-A*31:01 = test: as above; settings: source organism: SARS coronavirus Tor2
HLA-A*33:01 = test: as above; settings: source organism: SARS coronavirus Tor2
HLA-A*68:01 = test: as above; settings: source organism: SARS coronavirus Tor2
[7] = source organism: SARS coronavirus Tor2
[8] = source organism: Dengue virus 2 Jamaica/1409/1983
[9] = source organism: Dengue virus 1 Brazil/97-11/1997
[10] = source organism: Mammarenavirus lassaense
[11] = source organism: Mammarenavirus machupoense
[12] = source organism: Dengue virus 4 Philippines/H241/1956
[13] = source organism: Vaccinia virus Copenhagen
[14] = source organism: Mammarenavirus guanaritoense
[15] = source organism: Mammarenavirus tacaribeense
[16] = source organism: Lassa virus GA391

For LSDDAVVCY, the Kd (HLA-A*01:01 [1]) was 17.5 nM, the Kd (HLA-A*03:01 [2]) was 9260 nM and the Kd (HLA-A*11:01 [3]) was at least 22300 nM. For the same sequence, the Kd (HLA-B*15:01) was 474 nM, the Kd (HLA-B*58:01; source organism: SARS-CoV1) was 300 nM and the Kd (HLA-A*23:01; [7]) was at least 77800 nM. For the same sequence, the Kd (HLA-A*24:02; [7]) was at least 77600 nM, the Kd (HLA-A*26:01; [7]) was at least 80300 nM and the Kd (HLA-A*29:02; [7]) was 1000 nM. It also gave a Kd (HLA-A*30:02; [7]) of 1450 nM.
Work on LSFKELLVY yielded a Kd (HLA-A*01:01 [4]; [7]) of 85.3 nM, a Kd (HLA-A*23:01; [7]) of 2490 nM and a Kd (HLA-A*24:02; [7]) of 9230 nM. It also gave a Kd (HLA-A*26:01; [7]) of 10900 nM, a Kd (HLA-A*29:02; [7]) of 1.55 nM and a Kd (HLA-A*30:02; [7]) of 50.8 nM.
LTGYGTVTM gave a Kd (HLA-A*32:01; [8]) of 15400 nM.
MANICWIYY gave a Kd (HLA-B*57:01) of 256 nM and a Kd (HLA-B*58:01; source organism: Yersinia pestis Antiqua) of 43.3 nM.
With MEIRPVKEK the Kd (HLA-B*44:02; [9]) was 640 nM and the Kd (HLA-B*44:03; [9]) was 1010 nM.
MLMRVAVGI gave a Kd (HLA-A*32:01; source organism: Vaccinia virus WR) of 0.692 nM.
Work on NEMGLLETT yielded a Kd (HLA-B*44:03; [9]) of 8030 nM.
Work on PEDPIEVALY yielded a Kd (HLA-A*01:01 [4]; [10]) of at least 70400 nM, a Kd (HLA-A*23:01; [10]) of at least 70000 nM and a Kd (HLA-A*24:02; [10]) of at least 70300 nM. For the same sequence, the Kd (HLA-A*26:01; [10]) was at least 69700 nM, the Kd (HLA-A*29:02; [10]) was 10100 nM and the Kd (HLA-A*30:02; [10]) was 1220 nM.
PITAAAWYLW gave a Kd (HLA-A*32:01; [8]) of 1680 nM.
For PTITQMNLKY, the Kd (HLA-A*01:01 [4]; [7]) was 89.6 nM, the Kd (HLA-A*23:01; [7]) was at least 70000 nM and the Kd (HLA-A*24:02; [7]) was at least 70300 nM. The Kd (HLA-A*26:01; [7]) was 827 nM, the Kd (HLA-A*29:02; [7]) was 48.4 nM and the Kd (HLA-A*30:02; [7]) was 1120 nM.
With QCGDPSSFEY the Kd (HLA-A*01:01 [4]; [11]) was 500 nM, the Kd (HLA-A*23:01; [11]) was at least 68800 nM and the Kd (HLA-A*24:02; [11]) was at least 70300 nM. The Kd (HLA-A*26:01; [11]) was at least 69700 nM, the Kd (HLA-A*29:02; [11]) was 600 nM and the Kd (HLA-A*30:02; [11]) was 1580 nM.
With RMLINRFTM the Kd (HLA-A*32:01; [8]) was 95.7 nM.
SAAAYFVGY was tested, and the Kd (HLA-A*01:01 [4]; [7]) was 311 nM, the Kd (HLA-A*03:01 [5]) was 89.7 nM and the Kd (HLA-A*11:01 [6]) was 32.8 nM. For the same sequence, the Kd (HLA-A*23:01; [7]) was 6100 nM, the Kd (HLA-A*24:02; [7]) was 3870 nM and the Kd (HLA-A*26:01; [7]) was 85.5 nM. It also gave a Kd (HLA-A*29:02; [7]) of 65.5 nM, a Kd (HLA-A*30:02; [7]) of 17.7 nM and a Kd (HLA-A*31:01) of at least 26300 nM. It also gave a Kd (HLA-A*33:01) of at least 21500 nM and a Kd (HLA-A*68:01) of 106 nM.
In the case of SETFSMGLLC, the Kd (HLA-B*44:03; [12]) is reported as 82.9 nM.
SGCVVSWKNK gave a Kd (HLA-A*32:01; [8]) of 9640 nM.
SIIFINYTM showed a Kd (HLA-A*32:01; [13]) of 6.51 nM.
Sequence SQSDTVFDH has a Kd (HLA-A*01:01 [4]; source organism: Variola virus) of at least 23800 nM, a Kd (HLA-A*23:01; source organism: Variola virus) of at least 44400 nM and a Kd (HLA-A*24:02; source organism: Variola virus) of at least 77500 nM. It also gave a Kd (HLA-A*26:01; source organism: Variola virus) of at least 77900 nM, a Kd (HLA-A*29:02; source organism: Variola virus) of at least 48300 nM and a Kd (HLA-A*30:02; source organism: Variola virus) of at least 76900 nM.
Work on TAEDMLNPNY yielded a Kd (HLA-A*01:01 [4]; [7]) of 1040 nM, a Kd (HLA-A*23:01; [7]) of at least 70000 nM and a Kd (HLA-A*24:02; [7]) of at least 70300 nM. The Kd (HLA-A*26:01; [7]) was 17600 nM, the Kd (HLA-A*29:02; [7]) was 5500 nM and the Kd (HLA-A*30:02; [7]) was 1070 nM.
For TDNVHTWTEQ, the Kd (HLA-A*32:01; [8]) was at least 37600 nM.
Work on TEIASLPTY yielded a Kd (HLA-B*44:02; [12]) of 13 nM and a Kd (HLA-B*44:03; [12]) of 18.5 nM.
TELKYSWKTW showed a Kd (HLA-A*32:01; [8]) of 4270 nM, a Kd (HLA-B*44:02; [8]) of 37.9 nM and a Kd (HLA-B*44:03; [8]) of 23.9 nM.
For TGCAVSWSGK, the Kd (HLA-A*32:01; [12]) was 8440 nM.
TYVPSQERNF showed a Kd (HLA-A*01:01 [4]; [7]) of at least 70400 nM, a Kd (HLA-A*23:01; [7]) of 39.2 nM and a Kd (HLA-A*24:02; [7]) of 72.3 nM. The Kd (HLA-A*26:01; [7]) was at least 69700 nM, the Kd (HLA-A*29:02; [7]) was 1310 nM and the Kd (HLA-A*30:02; [7]) was 14100 nM.
Sequence VDNVHTWTEQ has a Kd (HLA-A*32:01; source organism: Dengue virus 4 Dominica/814669/1981) of at least 34100 nM.
VPDIPELSY was tested, and the Kd (HLA-A*01:01 [4]; [14]) was 3070 nM, the Kd (HLA-A*23:01; [14]) was at least 77700 nM and the Kd (HLA-A*24:02; [14]) was at least 77500 nM. For the same sequence, the Kd (HLA-A*26:01; [14]) was at least 49300 nM, the Kd (HLA-A*29:02; [14]) was 11700 nM and the Kd (HLA-A*30:02; [14]) was at least 25300 nM.
VTPSGTWLTY was tested, and the Kd (HLA-A*01:01 [4]; [7]) was 66.1 nM, the Kd (HLA-A*23:01; [7]) was at least 49100 nM and the Kd (HLA-A*24:02; [7]) was at least 57700 nM. It also gave a Kd (HLA-A*26:01; [7]) of 392 nM, a Kd (HLA-A*29:02; [7]) of 66.1 nM and a Kd (HLA-A*30:02; [7]) of 45.3 nM.
VTYELRYTL was tested, and the Kd (HLA-A*32:01; [13]) was 11.9 nM.
In the case of WFITQRNFF, the Kd (HLA-A*01:01 [4]; [7]) is reported as 1090 nM, the Kd (HLA-A*23:01; [7]) is reported as 2730 nM and the Kd (HLA-A*24:02; [7]) is reported as at least 32500 nM. It also gave a Kd (HLA-A*26:01; [7]) of 172 nM, a Kd (HLA-A*29:02; [7]) of 13.6 nM and a Kd (HLA-A*30:02; [7]) of 137 nM.
With YCDPKRFFL the Kd (HLA-A*01:01 [4]; [15]) was at least 29100 nM, the Kd (HLA-A*23:01; [15]) was 7530 nM and the Kd (HLA-A*24:02; [15]) was 11300 nM. For the same sequence, the Kd (HLA-A*26:01; [15]) was at least 77900 nM, the Kd (HLA-A*29:02; [15]) was at least 78900 nM and the Kd (HLA-A*30:02; [15]) was at least 76900 nM.
Sequence YCNYSRYWY has a Kd (HLA-A*01:01 [4]; [16]) of at least 34400 nM, a Kd (HLA-A*23:01; [16]) of at least 36900 nM and a Kd (HLA-A*24:02; [16]) of at least 77500 nM. The Kd (HLA-A*26:01; [16]) was at least 77900 nM, the Kd (HLA-A*29:02; [16]) was 1230 nM and the Kd (HLA-A*30:02; [16]) was 818 nM.
